In general, Kd refers to the free concentration of one partner at which half of the binding sites on the other are occupied at equilibrium, for simple one-to-one binding.

Kd data for one molecule are collected here from patent US20230070339A1 (UNIVERSITY OF SOUTHAMPTON, published 2023).

This assay concerns the target T1, LILRB3-hFc recombinant protein (human, UniProt O75022 24-443).
T1 construct: extracellular domain; also called LILRB-Fc; the extracellular LILRB3 domain with a human Fc tag; not shown: human Fc tag
Briefly: SPR (Biacore T100), LILRB3-hFc amine-coupled on CM5 chip, mAb as analyte, 1:1 model. How it is done: SPR was performed with the Biacore T100 (GE Healthcare, UK) as per the manufacturer's instructions. LILRB3-hFc recombinant protein (the extracellular LILRB3 domain with a human Fc tag) was used as the ligand and immobilized by amine coupling onto a series S sensor chip (CM5). Various LILRB3 mAb were used as “analytes” and flowed across the chip, and SPR measured.

T1 sequence (O75022 24-443): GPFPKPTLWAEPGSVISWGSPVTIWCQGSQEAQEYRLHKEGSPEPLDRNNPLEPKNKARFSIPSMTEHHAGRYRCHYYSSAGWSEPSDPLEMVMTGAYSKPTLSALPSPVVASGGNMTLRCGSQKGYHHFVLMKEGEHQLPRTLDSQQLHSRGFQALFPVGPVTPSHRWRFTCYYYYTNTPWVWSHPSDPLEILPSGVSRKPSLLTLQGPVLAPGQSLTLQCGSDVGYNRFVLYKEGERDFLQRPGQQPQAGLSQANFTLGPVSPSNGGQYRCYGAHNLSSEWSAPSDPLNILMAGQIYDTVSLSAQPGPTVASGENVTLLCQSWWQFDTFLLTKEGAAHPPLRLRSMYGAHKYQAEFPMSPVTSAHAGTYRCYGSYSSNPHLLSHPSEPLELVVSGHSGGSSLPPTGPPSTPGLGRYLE

B1: LILRB3 mAb clone A16 (antibody, human IgG1, V domains shown)
VH: EVQLLESGGGLVQPGGSLRLSCAASGFTFSSYWMSWVRQAPGKGLEWVSRINTHGTNIDYADSVKGRFTISRDNSKNTLYLQMNSLRAEDTAVYYCVGVAGTGWFDPWGQGTLVTVSS
VL: QSVLTQPPSASGTPGQRVTISCTGSSSNIGAGYDVHWYQQLPGTAPKLLIYGNNNRPSGVPDRFSGSKSGTSASLAISGLRSEDEADYYCQSYDTSLSGSVFGGGTKLTVLG
notes: Fully human IgG1, full-length IgG; only variable domains tied to the clone; APC-labelled for staining of primary cells; deglycosylated in the T cell assay
With B1, the Kd stood at 0.816 nM.
